The labels stand for the following.
B2: HMGB1-His tag protein (AcroBiosystems, HM1-H5220, HEK293 cell derived) (other, human, UniProt P09429 1-215, looked up)
chain: MGKGDPKKPRGKMSSYAFFVQTCREEHKKKHPDASVNFSEFSKKCSERWKTMSAKEKGKFEDMAKADKARYEREMKTYIPPKGETKKKFKDPNAPKRPPSAFFLFCSEYRPKIKGEHPGLSIGDVAKKLGEMWNNTAADDKQPYEKKAAKLKEKYEKDIAAYRAKGKPDAAKKGVVKAEKSKKKKEEEEDEEDEEDEEEEEDEEDEDEEEDDDDE
notes: Bought reagent; also called recombinant human HMGB1-His tag protein; High Mobility Group Box 1; not shown: His tag

Assay [1] has as its target B2. Nature of the assay: ELISA, HMGB1-His coated, detection by anti-human IgG-Fc-HRP. As for the experimental part: In-brief, 96-well plates were coated (100 μL per well) with 0.1 μg/mL HMGB1-His tag protein (AcroBiosystems, HM1-H5220, HEK293 cell derived) at 4° C. overnight. After blocking with SuperBlock (Thermo, 37515) at room temperature for 1 hour, 100 μL of 2-fold serial dilutions of AI-72 or CD24Fc (all starting at 1.5 mg/ml, and diluted in PBST-1% BSA solution containing 1 mM MgCl2 and 1 mM CaCl2) were added. The bound AI-072 or CD24Fc protein was then detected by adding HRP-labeled goat anti-human IgG-Fc antibody (1:1000, Invitrogen, A18829), followed by the addition of tetramethylbenzidin (TMB) substrate. After a color development at room temp for 15 mins, 2N HCl stop solution was then added into the plate. The OD values at a wavelength of 450 nm in each well were then measured.
On the technique in general: In an ELISA, binding on a coated surface is turned into a signal by an enzyme label.

Assay [2] concerns the target T1, Siglec10-mIgG2aFc fusion protein (AcroBiosystems, SI0-H525b, HEK293 cell derived) (human, UniProt Q96LC7 17-546).
T1 construct: Bought reagent; also called recombinant human Siglec-10-mIgGFc protein; not shown: mouse IgG2a Fc
T1 sequence (looked up): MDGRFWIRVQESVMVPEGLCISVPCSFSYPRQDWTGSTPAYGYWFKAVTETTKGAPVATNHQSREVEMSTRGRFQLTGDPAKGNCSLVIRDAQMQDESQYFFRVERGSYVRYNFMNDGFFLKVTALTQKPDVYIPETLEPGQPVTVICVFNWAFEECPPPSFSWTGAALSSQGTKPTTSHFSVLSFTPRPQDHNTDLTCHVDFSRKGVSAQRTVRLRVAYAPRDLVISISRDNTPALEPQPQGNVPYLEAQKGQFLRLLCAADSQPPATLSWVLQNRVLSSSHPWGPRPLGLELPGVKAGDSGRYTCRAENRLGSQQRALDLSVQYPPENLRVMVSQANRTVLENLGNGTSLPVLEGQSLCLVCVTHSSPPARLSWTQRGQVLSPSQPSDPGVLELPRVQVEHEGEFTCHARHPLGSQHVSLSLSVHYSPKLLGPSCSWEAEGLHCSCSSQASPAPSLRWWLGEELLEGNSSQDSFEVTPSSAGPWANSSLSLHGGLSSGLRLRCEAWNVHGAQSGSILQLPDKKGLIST
Nature of the assay: ELISA, Siglec10-mIgG2aFc coated, detection by anti-human IgG-Fc-HRP. As for the experimental part:
In-brief, 96-well plates were coated (100 μL per well) with 0.2 μg/mL of Siglec10-mIgG2aFc fusion protein (AcroBiosystems, SI0-H525b, HEK293 cell derived) at 4° C. overnight. After blocking with SuperBlock (Thermo, 37515) at room temperature for 1 hour, 100 μL of 2-fold serial dilutions of either AI-072 or CD24Fc (all starting at 1.5 mg/ml) were added. The bound AI-072 or CD24Fc protein was then detected by HRP-labeled goat anti-human IgG-Fc antibody (1:5000, Invitrogen, A18829) followed by the addition of Tetramethylbenzidin (TMB) substrate. After a color development at room temp for 15 min, 2N HCl stop solution was added into the plate. The OD values at a wavelength of 450 nm (OD 450 nm) in each well were then measured.

Assay [3] addresses T2, human IgG1-Fc control protein (human, UniProt P01857-1 100-330 = IgG part, limits assumed).
T2 construct: domain: Fc; Control in the pull-down assay; also called human IgG-Fc control
Description: protein A bead pull-down, SDS-PAGE with Coomassie staining. As for the experimental part:
FIGS. 8A-8B illustrate the association of AI-072 protein with human HMGB1 in a pull-down assay. Recombinant HMGB1-His protein sample was incubated with AI-072, human IgG-Fc control, or none for 5 min, then add protein A-conjugated beads to the mixture to capture (or pull-down) the bound proteins. The captured proteins were then separated in an SDS-PAGE gel and visualized by Coomassie Brilliant Blue dye staining. […] As indicated on the top of each gel, lane 1 represents the sample containing HMGB1 only, lane 2 represents the sample containing HMGB1 and human IgG-Fc, and lane 3 represents the sample containing HMGB1 and AI-072, lane M is the protein molecule weight marker sample.
In-brief, 8 μL of 500 μg/mL HMGB1-His protein was mixed with either about 3 μg AI-072 or human IgG1-Fc control protein or none, and set at room temp for 5 min. The mixtures were then incubated with protein A-conjugated beads to capture (or pull-down) the bound proteins. The captured proteins were separated in an SDS-PAGE gel and visualized by Coomassie Brilliant Blue dye staining.

Two molecules from patent publication US20240336665A1 (ACROIMMUNE GUANGZHOU BIOTECH, published 2024) can be followed below.

B1: CD24Fc fusion protein (Fc fusion, UniProt P25063 27-56, looked up)
chain: SETTTGTSSNSSQSTSNSGLAPNPTNATTK
notes: Comparator protein; also called CD24Fc protein; not shown: Fc detected by anti-human IgG-Fc antibody
The EC50 is the concentration giving half of the maximal effect. As for B1, the EC50 in assay [1] was 51 µM; in assay [2], 2850 nM. Turning to B2, the binding result in assay [3] is “no binding (tested: about 3 ug)”.
